In paper PMC11449375:

Assays:
[1] = biological target: AMC009 SOSIP.v9 (HIV-1 clade B, AMC009); test: negative-stain EM; purified SOSIPs incubated with Adjuplex, on carbon-covered copper grids, 2% uranyl formate; 2D class averages
[2] = biological target: AMC009 SOSIP.v9 (HIV-1 clade B, AMC009); test: native gel or EMSA; Blue Native-PAGE of the purified SOSIP.v9 proteins, 3-12% Bis-Tris NuPAGE gel, 2 ug protein, Colloidal blue stain
[3] = biological target: TRO.11 SOSIP.v9 (HIV-1 clade B, TRO.11); test: negative-stain EM; purified SOSIPs incubated with Adjuplex, on carbon-covered copper grids, 2% uranyl formate; 2D class averages
[4] = biological target: TRO.11 SOSIP.v9 (HIV-1 clade B, TRO.11); test: native gel or EMSA; Blue Native-PAGE of the purified SOSIP.v9 proteins, 3-12% Bis-Tris NuPAGE gel, 2 ug protein, Colloidal blue stain
[5] = biological target: AMC016 SOSIP.v9 (HIV-1 clade B, AMC016); test: negative-stain EM; purified SOSIPs incubated with Adjuplex, on carbon-covered copper grids, 2% uranyl formate; 2D class averages
[6] = biological target: AMC016 SOSIP.v9 (HIV-1 clade B, AMC016); test: native gel or EMSA; Blue Native-PAGE of the purified SOSIP.v9 proteins, 3-12% Bis-Tris NuPAGE gel, 2 ug protein, Colloidal blue stain
[7] = biological target: AMC008 SOSIP.v9 (HIV-1 clade B, AMC008); test: negative-stain EM; purified SOSIPs incubated with Adjuplex, on carbon-covered copper grids, 2% uranyl formate; 2D class averages
[8] = biological target: AMC008 SOSIP.v9 (HIV-1 clade B, AMC008); test: native gel or EMSA; Blue Native-PAGE of the purified SOSIP.v9 proteins, 3-12% Bis-Tris NuPAGE gel, 2 ug protein, Colloidal blue stain
[9] = biological target: AMC011 SOSIP.v9 (HIV-1 clade B, AMC011); test: negative-stain EM; purified SOSIPs incubated with Adjuplex, on carbon-covered copper grids, 2% uranyl formate; 2D class averages
[10] = biological target: AMC011 SOSIP.v9 (HIV-1 clade B, AMC011); test: native gel or EMSA; Blue Native-PAGE of the purified SOSIP.v9 proteins, 3-12% Bis-Tris NuPAGE gel, 2 ug protein, Colloidal blue stain

Substance: AMC009 SOSIP.v9 (complex)
- stoichiometry N [1]: 3
- stoichiometry N [2]: 3

Substance: TRO.11 SOSIP.v9 (complex)
- stoichiometry N [3]: 3
- stoichiometry N [4]: 3

Substance: AMC016 SOSIP.v9 (complex)
- stoichiometry N [5]: 3
- stoichiometry N [6]: 3

Substance: AMC008 SOSIP.v9 (complex)
- stoichiometry N [7]: 3
- stoichiometry N [8]: 3

Substance: AMC011 SOSIP.v9 (complex)
- stoichiometry N [9]: 3
- stoichiometry N [10]: 3
